Here are results for 36 sequences from the Immune Epitope Database (IEDB).

Broadly, the Kd is the constant that tells how readily two partners part at equilibrium.

Assay in all cases: IEDB peptide-MHC binding, purified MHC/competitive/radioactivity; filed as Kd, often an IC50 or EC50 that approximates it; ≥ and ≤ were set here for values at or beyond the usual limits of such assays
Experiment [1] deals with HLA-A*02:06.
Experiment [2] concerns the target HLA-A*02:02.
The target of experiment [3] is HLA-A*02:03.
The target in experiment [4] is HLA-A*11:01.
Experiment [5] concerns the target HLA-A*03:01.
Experiment [6] has as its target HLA-A*31:01.
For experiment [7], the target named is HLA-A*33:01.
The target of experiment [8] is HLA-A*68:01.
[9] abbreviates: source organism: Vaccinia virus WR.
[10] abbreviates: source organism: SARS coronavirus Tor2.
Setting [11] is: source organism: Mammarenavirus machupoense.
The mark [12] stands for this setting: source organism: Dengue virus 4 Philippines/H241/1956.

YVLFVKKML: the Kd in experiment [1] (setting [9]) was 2540 nM; in experiment [2] (setting [9]), at least 31100 nM; in experiment [3] (setting [9]) it was 12000 nM.
On to VLAWLYAAV, for which the Kd was found to be 8.79 nM in experiment [1] (setting [10]), 0.0967 nM in experiment [2] (setting [10]) and 0.311 nM in experiment [3] (setting [10]).
As for KIIAVFDSKL, the figures for the Kd in experiment [1] (setting [9]), in experiment [2] (setting [9]) and in experiment [3] (setting [9]) were 59.4 nM, 24.6 nM and 56.8 nM, respectively.
The corresponding values for STYPGNTFV are 0.464 nM, 10.8 nM and 0.192 nM.
The corresponding values for FLLPLTSLVI are 2.5 nM, 11.5 nM and 5.07 nM.
The corresponding values for ILATLNTLIT are 629 nM, 6.95 nM and 12.3 nM.
Regarding NIGCAVNTPV, the figures for the Kd in experiment [1] (setting [9]), in experiment [2] (setting [9]) and in experiment [3] (setting [9]) were 176 nM, 126 nM and 30.3 nM, respectively.
With RLSAAIGKA, in experiment [3] (source organism: Dengue virus 1 Singapore/S275/1990), the Kd came to 70.7 nM.
Consider GIAIFNNRNL, for which the Kd in experiment [1] (setting [9]) stood at 4720 nM; in experiment [2] (setting [9]), 5.12 nM; in experiment [3] (setting [9]) it was 2040 nM.
With GVMYAFTTPL, the equilibrium dissociation constant (Kd) in experiment [1] (setting [9]) amounted to 44.8 nM; in experiment [2] (setting [9]), 34.2 nM; in experiment [3] (setting [9]), 44.4 nM.
For the sequence LMLKATLLCV, the Kd in experiment [1] (setting [10]) is 63.4 nM; in experiment [2] (setting [10]), 3.39 nM; in experiment [3] (setting [10]), 20.9 nM.
Take ITDDSDDYEL: the equilibrium dissociation constant (Kd) in experiment [1] (setting [9]) turned out to be 49.3 nM; in experiment [2] (setting [9]) it was 687 nM; in experiment [3] (setting [9]), 11900 nM.
The corresponding values for SMYGKAFNHA are 4.03 nM, 6.58 nM and 0.929 nM.
Regarding GIVAIDLDPV, in experiment [1] (source organism: Dengue virus 1 Brazil/97-11/1997), the dissociation constant (Kd) came to 9.7 nM.
As to FLAHYIGTS, the Kd in experiment [3] (source organism: Dengue virus 3 Martinique/1243/1999) worked out at 10.7 nM.
Regarding EQRRSTIFDI, the dissociation constant Kd was at least 25600 nM in experiment [1] (setting [9]), at least 23000 nM in experiment [2] (setting [9]) and 11400 nM in experiment [3] (setting [9]).
The corresponding values for FTFGDTALYV are 3.51 nM, 24.3 nM and 48.1 nM.
With IMLIIFWFSL, the Kd in experiment [1] (setting [10]) came to 16800 nM; in experiment [2] (setting [10]), 1540 nM; in experiment [3] (setting [10]), 14900 nM.
Regarding IVCIVAAVII, the Kd in experiment [1] (setting [9]) was determined as 3560 nM; in experiment [2] (setting [9]) it was 1460 nM; in experiment [3] (setting [9]) it was 1590 nM.
With FQESFYEDI, the Kd in experiment [1] (setting [9]) amounted to 185 nM; in experiment [2] (setting [9]), 2280 nM; in experiment [3] (setting [9]), 4420 nM.
For the sequence PVVYHDDDNT, the values for the dissociation constant Kd in experiment [1] (setting [9]), in experiment [2] (setting [9]) and in experiment [3] (setting [9]) were 1350 nM, 9140 nM and at least 26800 nM, respectively.
With IVQLPKRGV, the equilibrium dissociation constant (Kd) in experiment [1] (setting [9]) was found to be 3120 nM; in experiment [2] (setting [9]), 12000 nM; in experiment [3] (setting [9]) it was 8750 nM.
The corresponding values for TILATLNTLI are 335 nM, 39.5 nM and 29.7 nM.
Turning to PVDLVKSSFV, the Kd was at least 26600 nM in experiment [1] (setting [9]), 6610 nM in experiment [2] (setting [9]) and 9640 nM in experiment [3] (setting [9]).
KSYFTNAAL: the dissociation constant Kd in experiment [1] (setting [11]) is 12000 nM; in experiment [2] (setting [11]) it was 593 nM; in experiment [3] (setting [11]), 7180 nM.
As for VADLSARNKL, the equilibrium dissociation constant (Kd) is at least 35800 nM in experiment [1] (setting [9]), 1170 nM in experiment [2] (setting [9]) and 2160 nM in experiment [3] (setting [9]).
As to IAMWLLLLSI, the dissociation constant (Kd) in experiment [1] (setting [10]) came out at 498 nM; in experiment [2] (setting [10]), 85.8 nM; in experiment [3] (setting [10]), 1900 nM.
On to TLALSLTFI, for which the Kd in experiment [3] (setting [12]) was found to be 1.04 nM.
As to FQPESPARL, the Kd in experiment [1] (setting [12]) came to 36.9 nM.
As for LMAIDLGEL, the dissociation constant (Kd) in experiment [3] (source organism: Dengue virus 2 Jamaica/1409/1983) was 15.3 nM.
IIGPMFSGK: the Kd in experiment [4] (setting [9]) is 1.79 nM; in experiment [5] (setting [9]), 0.73 nM; in experiment [6] (setting [9]) it was 6320 nM; in experiment [7] (setting [9]) it was 7360 nM; in experiment [8] (setting [9]) it was 100 nM.
For QILEENMEV, in experiment [1] (setting [12]), the Kd is 30.5 nM.
As for QVKDNIISR, the equilibrium dissociation constant (Kd) in experiment [4] (setting [9]) worked out at 185 nM; in experiment [5] (setting [9]), 2550 nM; in experiment [6] (setting [9]), 908 nM; in experiment [7] (setting [9]), 64.8 nM; in experiment [8] (setting [9]), 11.3 nM.
For the sequence GVIRSIFAR, the dissociation constant (Kd) in experiment [4] (setting [10]) turned out to be 0.618 nM; in experiment [5] (setting [10]) it was 1300 nM; in experiment [6] (setting [10]), 1.02 nM; in experiment [7] (setting [10]) it was 118 nM; in experiment [8] (setting [10]) it was 0.519 nM.
Take AMENLKAMLY: the Kd in experiment [4] (setting [9]) is 222 nM; in experiment [5] (setting [9]), 144 nM; in experiment [6] (setting [9]) it was at least 41900 nM; in experiment [7] (setting [9]) it was at least 70000 nM; in experiment [8] (setting [9]), 2790 nM.
Turning to RSKMLKRGSR, the Kd in experiment [4] (setting [9]) is 1170 nM; in experiment [5] (setting [9]) it was 279 nM; in experiment [6] (setting [9]), 0.61 nM; in experiment [7] (setting [9]), 128 nM; in experiment [8] (setting [9]) it was 166 nM.
